# Results: the supplement of paper PMC9112550, “Optimization of the antimicrobial peptide Bac7 by deep mutational scanning” (BMC Biology, 2022)
# Tested on: Escherichia coli TOP10
# Experiment: shrunken log2 fold change of peptide-encoding DNA abundance (4.5 h post-induction vs induction); higher = less antimicrobial activity (less host growth inhibition)
# Settings: time post-induction: 4.5 h; library: site-saturation at positions 5, 18, 19, 20
# 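Also: peptides expressed intracellularly from a pBAD plasmid library in pooled LB shake-flask culture, induced with 0.3% L-arabinose, DNA abundance read by NGS, three biological replicates, DESeq2 with apeglm shrinkage.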
row,Sequence,shrunken log2 fold change
1,RRIRRRPPRLPRPRPRPPPPPRP,1.03
2,RRIRMRPPRLPRPRPRPPRQPRP,1.43
3,RRIRQRPPRLPRPRPRPNVFPRP,-0.14
4,RRIRNRPPRLPRPRPRPTICPRP,-0.119
5,RRIRFRPPRLPRPRPRPPSKPRP,-0.148
6,RRIRPRPPRLPRPRPRPCARPRP,0.0698
7,RRIRPRPPRLPRPRPRPTDGPRP,-0.0563
8,RRIRNRPPRLPRPRPRPECHPRP,-0.0505
9,RRIRYRPPRLPRPRPRPFPIPRP,-0.705
10,RRIRHRPPRLPRPRPRPDEWPRP,-0.000921
11,RRIRSRPPRLPRPRPRPDLLPRP,-0.0424
12,RRIRPRPPRLPRPRPRPKGMPRP,0.129
13,RRIRRRPPRLPRPRPRPRSYPRP,0.0753
14,RRIRERPPRLPRPRPRPKQSPRP,-0.0888
15,RRIRNRPPRLPRPRPRPPIFPRP,0.0391
16,RRIRERPPRLPRPRPRPPWFPRP,0.0508
17,RRIRKRPPRLPRPRPRPEWHPRP,0.125
18,RRIRDRPPRLPRPRPRPWANPRP,0.0419
19,RRIRCRPPRLPRPRPRPYGFPRP,-0.515
20,RRIRFRPPRLPRPRPRPIPIPRP,-0.648
21,RRIRERPPRLPRPRPRPEYKPRP,-0.471
22,RRIRRRPPRLPRPRPRPIYPPRP,-0.2
23,RRIRFRPPRLPRPRPRPTHFPRP,-0.227
24,RRIRWRPPRLPRPRPRPPRHPRP,0.608
25,RRIRRRPPRLPRPRPRPHNAPRP,2.48

row,Sequence,shrunken log2 fold change
1,RRIRGRPPRLPRPRPRPRKTPRP,0.375
2,RRIRYRPPRLPRPRPRPPTCPRP,-0.163
3,RRIRTRPPRLPRPRPRPDALPRP,0.162
4,RRIRMRPPRLPRPRPRPMIVPRP,-0.101
5,RRIRTRPPRLPRPRPRPPQPPRP,0.154
6,RRIRLRPPRLPRPRPRPGYDPRP,-0.233
7,RRIRERPPRLPRPRPRPLTPPRP,-0.123
8,RRIRTRPPRLPRPRPRPANIPRP,-0.439
9,RRIRVRPPRLPRPRPRPNYNPRP,-0.76
10,RRIRMRPPRLPRPRPRPDRVPRP,0.0719
11,RRIRVRPPRLPRPRPRPHINPRP,-0.524
12,RRIRVRPPRLPRPRPRPWKVPRP,-0.0954
13,RRIRRRPPRLPRPRPRPNYTPRP,-0.44
14,RRIRFRPPRLPRPRPRPAAPPRP,0.745
15,RRIRMRPPRLPRPRPRPFVEPRP,-0.0699
16,RRIRCRPPRLPRPRPRPQYYPRP,-0.977
17,RRIRTRPPRLPRPRPRPGWIPRP,-0.154
18,RRIRIRPPRLPRPRPRPKFMPRP,-0.321
19,RRIRHRPPRLPRPRPRPNMEPRP,-0.0709
20,RRIRHRPPRLPRPRPRPCNFPRP,-0.74
21,RRIRCRPPRLPRPRPRPPPYPRP,0.511
22,RRIRFRPPRLPRPRPRPHIVPRP,-0.0839
23,RRIRKRPPRLPRPRPRPQSWPRP,0.451
24,RRIRIRPPRLPRPRPRPKIWPRP,0.145
25,RRIRTRPPRLPRPRPRPKIRPRP,0.0372

row,Sequence,shrunken log2 fold change
1,RRIRSRPPRLPRPRPRPQDNPRP,-0.362
2,RRIRMRPPRLPRPRPRPGIFPRP,0.00597
3,RRIRERPPRLPRPRPRPVYSPRP,-0.409
4,RRIRWRPPRLPRPRPRPTVHPRP,-0.189
5,RRIRKRPPRLPRPRPRPWNFPRP,-0.162
6,RRIRWRPPRLPRPRPRPRFEPRP,0.225
7,RRIRGRPPRLPRPRPRPWGTPRP,0.0721
8,RRIRDRPPRLPRPRPRPSYHPRP,-0.835
9,RRIRQRPPRLPRPRPRPGLWPRP,0.452
10,RRIRHRPPRLPRPRPRPNEQPRP,-0.0176
11,RRIRVRPPRLPRPRPRPAGTPRP,0.146
12,RRIRDRPPRLPRPRPRPVFIPRP,-0.476
13,RRIRQRPPRLPRPRPRPGWCPRP,0.0842
14,RRIRARPPRLPRPRPRPAYLPRP,0.365
15,RRIRMRPPRLPRPRPRPHSRPRP,0.211
16,RRIRHRPPRLPRPRPRPKGTPRP,-0.0951
17,RRIRMRPPRLPRPRPRPNVCPRP,-0.00865
18,RRIRTRPPRLPRPRPRPPVFPRP,0.346
19,RRIRVRPPRLPRPRPRPAWAPRP,0.255
20,RRIRYRPPRLPRPRPRPYPQPRP,-0.466
21,RRIRYRPPRLPRPRPRPRREPRP,0.0181
22,RRIRLRPPRLPRPRPRPGVQPRP,0.0642
23,RRIRQRPPRLPRPRPRPPTEPRP,-0.153
24,RRIRSRPPRLPRPRPRPTWWPRP,0.422
25,RRIRMRPPRLPRPRPRPASRPRP,0.201

row,Sequence,shrunken log2 fold change
1,RRIRERPPRLPRPRPRPRGMPRP,0.0957
2,RRIRNRPPRLPRPRPRPPWTPRP,0.272
3,RRIRYRPPRLPRPRPRPDFRPRP,0.129
4,RRIRLRPPRLPRPRPRPLFYPRP,-0.238
5,RRIRLRPPRLPRPRPRPTPFPRP,0.253
6,RRIRMRPPRLPRPRPRPRDRPRP,1.11
7,RRIRERPPRLPRPRPRPQECPRP,-0.399
8,RRIRARPPRLPRPRPRPIGTPRP,0.0903
9,RRIRRRPPRLPRPRPRPCFEPRP,0.0864
10,RRIRFRPPRLPRPRPRPNSRPRP,-0.0396
11,RRIRQRPPRLPRPRPRPEWNPRP,-0.175
12,RRIRHRPPRLPRPRPRPFIGPRP,-0.231
13,RRIRIRPPRLPRPRPRPVISPRP,-0.43
14,RRIRIRPPRLPRPRPRPIMLPRP,0.112
15,RRIRFRPPRLPRPRPRPCNKPRP,-0.249
16,RRIRRRPPRLPRPRPRPILVPRP,-0.106
17,RRIRERPPRLPRPRPRPCGNPRP,-0.00264
18,RRIRTRPPRLPRPRPRPPKMPRP,0.18
19,RRIRLRPPRLPRPRPRPIHHPRP,-0.246
20,RRIRYRPPRLPRPRPRPDKKPRP,-0.0333
21,RRIRVRPPRLPRPRPRPDIGPRP,-0.173
22,RRIRWRPPRLPRPRPRPKFMPRP,-0.0525
23,RRIRYRPPRLPRPRPRPEYPPRP,-0.01
24,RRIRSRPPRLPRPRPRPYESPRP,-0.26
25,RRIRDRPPRLPRPRPRPVSDPRP,-0.145

row,Sequence,shrunken log2 fold change
1,RRIRWRPPRLPRPRPRPCKGPRP,-0.186
2,RRIRRRPPRLPRPRPRPMLWPRP,-0.0161
3,RRIRKRPPRLPRPRPRPVVKPRP,-0.0849
4,RRIRPRPPRLPRPRPRPLCHPRP,-0.139
5,RRIRERPPRLPRPRPRPDFWPRP,0.214
6,RRIRYRPPRLPRPRPRPMHEPRP,-0.405
7,RRIRLRPPRLPRPRPRPYEEPRP,-0.274
8,RRIRQRPPRLPRPRPRPAMPPRP,0.306
9,RRIRERPPRLPRPRPRPQRRPRP,-0.0022
10,RRIRSRPPRLPRPRPRPDMRPRP,0.187
11,RRIRKRPPRLPRPRPRPHMGPRP,-0.0935
12,RRIRYRPPRLPRPRPRPNQWPRP,0.00192
13,RRIRMRPPRLPRPRPRPVYGPRP,-0.294
14,RRIRDRPPRLPRPRPRPTQDPRP,1.27
15,RRIRHRPPRLPRPRPRPLIAPRP,-0.261
16,RRIRVRPPRLPRPRPRPKAQPRP,0.107
17,RRIRARPPRLPRPRPRPEMLPRP,0.234
18,RRIRRRPPRLPRPRPRPTYVPRP,0.00831
19,RRIRNRPPRLPRPRPRPYYQPRP,-0.697
20,RRIRQRPPRLPRPRPRPPPQPRP,0.712
21,RRIRCRPPRLPRPRPRPDDDPRP,0.0464
22,RRIRYRPPRLPRPRPRPMSMPRP,-0.304
23,RRIRFRPPRLPRPRPRPNGTPRP,-0.419
24,RRIRVRPPRLPRPRPRPPELPRP,0.186
25,RRIRYRPPRLPRPRPRPREQPRP,-0.659

row,Sequence,shrunken log2 fold change
1,RRIRCRPPRLPRPRPRPSQYPRP,-0.471
2,RRIRWRPPRLPRPRPRPFCSPRP,-0.0764
3,RRIRNRPPRLPRPRPRPKVRPRP,-0.0024
4,RRIRLRPPRLPRPRPRPIAIPRP,0.12
5,RRIRWRPPRLPRPRPRPAKEPRP,-0.01
6,RRIRYRPPRLPRPRPRPEFPPRP,0.011
7,RRIRHRPPRLPRPRPRPWCEPRP,0.0456
8,RRIRARPPRLPRPRPRPEYFPRP,0.188
9,RRIRHRPPRLPRPRPRPFIPPRP,0.0413
10,RRIRERPPRLPRPRPRPYQCPRP,-0.00884
11,RRIRVRPPRLPRPRPRPWCTPRP,0.0234
12,RRIRLRPPRLPRPRPRPVAVPRP,0.0513
13,RRIRWRPPRLPRPRPRPPWVPRP,-0.00745
14,RRIRHRPPRLPRPRPRPRNTPRP,-0.229
15,RRIRTRPPRLPRPRPRPELKPRP,0.432
16,RRIRSRPPRLPRPRPRPMQLPRP,0.115
17,RRIRPRPPRLPRPRPRPRSHPRP,0.16
18,RRIRERPPRLPRPRPRPRRHPRP,0.411
19,RRIRHRPPRLPRPRPRPQLEPRP,0.0607
20,RRIRSRPPRLPRPRPRPAEFPRP,0.00621
21,RRIRRRPPRLPRPRPRPSWFPRP,0.165
22,RRIRKRPPRLPRPRPRPMGIPRP,-0.00149
23,RRIRYRPPRLPRPRPRPCMPPRP,-0.123
24,RRIRERPPRLPRPRPRPTNVPRP,-0.387
25,RRIRPRPPRLPRPRPRPCVYPRP,-0.22
